Assay results reported in PMC3458545 (Nucleic Acids Research, 2012).

T1: RecQL4_N54 (human (Homo sapiens), UniProt O94761 1-54)
T1 sequence: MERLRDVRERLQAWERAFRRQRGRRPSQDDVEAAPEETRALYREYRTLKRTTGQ


Key:
[1] = target: GST-TopBP1 (a.a. 1233–1522) (human, UniProt Q92547 1233-1522); assay: SPR
RecQL4_N54 = target: T1, RecQL4_N54; assay: EMSA

Sequence of GST-TopBP1 (a.a. 1233–1522) (Q92547 1233-1522): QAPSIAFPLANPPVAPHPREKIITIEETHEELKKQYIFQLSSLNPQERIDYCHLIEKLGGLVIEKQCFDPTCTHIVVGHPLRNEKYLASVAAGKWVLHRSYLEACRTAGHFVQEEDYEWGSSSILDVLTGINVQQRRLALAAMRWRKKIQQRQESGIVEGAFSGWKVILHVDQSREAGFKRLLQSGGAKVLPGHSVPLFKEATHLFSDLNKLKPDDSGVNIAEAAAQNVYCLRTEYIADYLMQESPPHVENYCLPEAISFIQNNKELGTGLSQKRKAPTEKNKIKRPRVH

Row | Kd [1] [µM] | Binder | binding result (RecQL4_N54)
1 | ~70 | RecQL4_N54 (domain or fragment, human) GSMERLRDVRERLQAWERAFRRQRGRRPSQDDVEAAPEETRALYREYRTLKRTTGQ | –
2 | – | M2-M4 Y (mixed) DNA 1: GCTTGCATGCCTGCAGGCCAGCCTCAATCTCATC DNA 2: ATCCTCTCTAGAGTCGACCTGCAGGCATGCAAGC | binds
3 | – | S4-M3 Y (mixed) DNA 1: ATCCTCTCTAGAGTCAAGGTCGGAGTTAGAGTAG DNA 2: CTACTCTAACTCCGACCGCTTGCATGCCTGCAGG | binds
